Target: SEL1L S658P, endogenous, liver of knock-in mice (mouse (endogenous in liver)) (UniProt Q9Z2G6)
Experiment: co-IP

UniProt Q9Z2G6, sequence (Q9Z2G6 22-790, stated change not applied): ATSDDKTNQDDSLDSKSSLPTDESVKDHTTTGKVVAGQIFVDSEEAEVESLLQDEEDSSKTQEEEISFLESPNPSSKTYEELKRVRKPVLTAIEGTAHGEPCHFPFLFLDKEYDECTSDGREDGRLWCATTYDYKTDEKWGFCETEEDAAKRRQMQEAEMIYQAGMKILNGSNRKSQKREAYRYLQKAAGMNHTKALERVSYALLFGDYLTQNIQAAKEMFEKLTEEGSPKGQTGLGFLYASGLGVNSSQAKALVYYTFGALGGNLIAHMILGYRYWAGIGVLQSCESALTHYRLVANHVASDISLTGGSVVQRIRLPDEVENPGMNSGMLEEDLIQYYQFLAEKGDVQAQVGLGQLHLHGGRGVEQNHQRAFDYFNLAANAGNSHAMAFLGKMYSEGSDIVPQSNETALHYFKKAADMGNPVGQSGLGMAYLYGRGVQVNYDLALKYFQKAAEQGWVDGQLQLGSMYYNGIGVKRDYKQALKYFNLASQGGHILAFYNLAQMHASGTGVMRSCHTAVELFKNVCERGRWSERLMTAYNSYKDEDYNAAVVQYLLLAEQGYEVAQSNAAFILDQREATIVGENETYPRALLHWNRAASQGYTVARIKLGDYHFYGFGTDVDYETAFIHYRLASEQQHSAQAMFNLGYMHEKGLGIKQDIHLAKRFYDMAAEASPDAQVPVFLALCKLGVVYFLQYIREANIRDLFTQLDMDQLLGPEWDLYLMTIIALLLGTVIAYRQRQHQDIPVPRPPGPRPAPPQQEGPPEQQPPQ

HRD1, endogenous, mouse liver (from UniProt Q9DBY1 1-612) (natural protein)
fold reduction of co-precipitated HRD1 against WT livers: 5 fold

Source: publication doi:10.1101/2023.04.13.536796
